US20210221878A1

What was measured:
[1] = biological target: αSyn WT PFF (preformed fibrils of recombinant wild-type human α-synuclein) (human) (UniProt P37840); experiment: ratio of monomer to PFF binding potency, solution competition ELISA
[2] = biological target: full-length human recombinant wild-type α-synuclein monomer (human) (UniProt P37840); experiment: solution competition ELISA, free antibody captured on PFF plate; binding potency, monomer (ng/ml)
[3] = biological target: αSyn WT PFF (preformed fibrils of recombinant wild-type human α-synuclein) (human) (UniProt P37840); experiment: solution competition ELISA, free antibody captured on PFF plate; binding potency, PFF (ng/ml)

| Mono/PFF Ratio [1] | EC50 [2] [µg/mL] | EC50 [3] [µg/mL] | Substance |
| --- | --- | --- | --- |
| 38 | 0.062 | 0.0016 | LB509 (antibody) |
| 0.27 | 0.008 | 0.0292 | MJFR1 (antibody) |
| 7230 | 3.66 | 0.00051 | MJFR14642 (antibody) |
| 0.47 | 0.0512 | 0.109 | Syn303 (antibody) |
